Results published in patent publication US20190031781A1.

Tests used:
[1] = biological target: carboxymethyl lysine conjugated to keyhole limpet hemocyanin (CML-KLH); assay: direct binding ELISA, CML-KLH coat 1 ug/mL, antibody at 1.85 ug/mL
[2] = biological target: carboxymethyl lysine conjugated to keyhole limpet hemocyanin (CML-KLH); assay: direct binding ELISA, CML-KLH coat 1 ug/mL, antibody at 50 ug/mL
[3] = biological target: carboxymethyl lysine conjugated to keyhole limpet hemocyanin (CML-KLH); assay: direct binding ELISA, CML-KLH coat 1 ug/mL, antibody at 0.21 ug/mL
[4] = biological target: carboxymethyl lysine conjugated to keyhole limpet hemocyanin (CML-KLH); assay: direct binding ELISA, CML-KLH coat 1 ug/mL, antibody at 16.67 ug/mL
[5] = biological target: carboxymethyl lysine conjugated to keyhole limpet hemocyanin (CML-KLH); assay: direct binding ELISA, CML-KLH coat 1 ug/mL, antibody at 0.07 ug/mL
[6] = biological target: carboxymethyl lysine conjugated to keyhole limpet hemocyanin (CML-KLH); assay: direct binding ELISA, CML-KLH coat 1 ug/mL, antibody at 5.56 ug/mL
[7] = biological target: carboxymethyl lysine conjugated to keyhole limpet hemocyanin (CML-KLH); assay: direct binding ELISA, CML-KLH coat 1 ug/mL, antibody at 0.62 ug/mL

Substance: carboxymethyl lysine MAb (Clone 318003), R&D Systems, catalog no. MAB3247 (antibody)
- OD450 [1]: 0.092
- OD450 [2]: 0.462
- OD450 [3]: 0.075
- OD450 [4]: 0.312
- OD450 [5]: 0.086
- OD450 [6]: 0.165
- OD450 [7]: 0.083
